# Assay: soluble on expression in E. coli; label from the status in PepcDB or PDB records
row,Sequence,soluble on expression in E. coli
1,AITGIFFGSDTGNTENIAKMIQKQLGKDVADVHDIAKSSKEDLEAYDILLLGIPTWYYGEAQCDWDDFFPTLEEIDFNGKLVALFGCGDQEDYAEYFCDALGTIRDIIEPRGATIVGHWPTAGYHFEASKGLADDDHFVGLAIDEDRQPELTAERVEKWVKQISEELHLDEILNA,soluble
2,MGHHHHHHSHMAVGTSALSKEPWWTLPENFHSPMVFHMEEDQEELIFGLDDTYLRCIELHSHTLIQLERCFTATGQTRVTVVGPPMAKQWLLLMFHCVGSQDSKCHARGLKMLERVRSQPLTNDDLVTSVSLPPYTGD,not soluble
3,MSLIAPLLVIEDEPAVMSFVRRALERGGYTVVGANSGMQALELLKGQQFQGIISDMRTPGNVDGGGVYHWIREHRPELANRIVFITGDIVNEETVAVLKETGAPCVEKPFRVQDLIATVENTIGKPQQETEGHHHHHH,soluble
4,MNDHIHRVPALTEEEIDSVAIKTFERYALPSSSSVKRKGKGVTILWFRNDLRVLDNDALYKAWSSSDTILPVYCLDPRLFHTTHFFNFPKTGALRGGFLMECLVDLRKNLMKRGLNLLIRSGKPEEILPSLAKDFGARTVFAHKETCSEEVDVERLVNQGLKRVGNSTKLELIWGSTMYHKDDLPFDVFDLPDVYTQFRKSVEAKCSIRSSTRIPLSLGPTPSVDDWGDVPTLEKLGVEPQEVTRGMRFVGGESAGVGRVFEYFWKKDLLKVYKETRNGMLGPDYSTKFSPWLAFGCISPRFIYEEVQRYEKERVANNSTYWVLFELIWRDYFRFLSIKCGNSLFHLGGPRNVQGKWSQDQKLFESWRDAKTGYPLIDANMKELSTTGFMSNRGRQIVCSFLVRDMGLDWRMGAEWFETCLLDYDPCSNYGNWTYGAGVGNDPREDRYFSIPKQAQNYDPEGEYVAFWLQQLRRLPKEKRHWPGRLMYMDTVVPLKHGNGPMAGGSKSGGGFRGSHSGRRSRHNGP,soluble
5,MKLIRGIHNLSQAPHGCVLTIGNFDGVHRGHRALLQGLQEEGRRRGLPVVVMIFEPQPLELFATDKAPARLTRLREKLHYLAQCGVDYVLCVKFDRRFAALTAQTFISELLVERLGVQFLAVGDDFRFGASRAGDFLLLQKAGAEYGFAVSSTQTFCEGGVRISSTAVRQALAEDNLALAESLLGHPFTISGRVVHGDELGRTIGFPTANLPLRRQVSPVKGVYAVEVTGLGDKPLPGVANIGTRPTVAGVRQQLEVHLLDVVMDLYGRHIDVILRKKIRNEQRFASLDELKAQIARDELTARKFFGLAGQV,not soluble
6,MKKFCLSYSSGKDCLLAMDRLVQAGNQPVALVTTLSDEINRSWFHGIPISVLEAAAEALDLPLVISHNNETNYTEKVVEALQETKKLGAETVCFGDIDIEQNGAWDRQVALSAGLEPQLPLWQENREALVKEFLAKGYTAIIKTVSKEAGIPIKFLGEPLNETFITYLKEHQLDICGENGEYHTLVIDGPLFKKRLNYYTSGIYESPYAYSLIIDALEHHHHHH,soluble
7,GPGHAGIFTFEEPVTHVSESIGIMEVKVLRTSGARGNVIVPYKTIEGTARGGGEDFEDTCGELEFQNDEIVKTISVKVIDDEEYEKNKTFFLEIGEPRLVEMSEKKALLLNELGGFTITGKYLYGQPVFRKVHAREHPIPSTVITIAEEYDDKQPLTSKEEEERRIAEMGRPILGEHTKLEVIIEESYEFKS,soluble
8,MEFRKSPSPDGDRIELVAIYDHDERIDMNDLHRSLTGFRILTLRISATYDQDIERIAFLPTIDKLTFCKDLLNAYNFQRIIMQSYEGIKAIGSRRTRIKLNDLLAANISFPIFMNVILPDAQLNLFIKYLIAGSNHRLDGFLFAKTPNAADFNEAAIFKGVNYQPVGGREAYPEFRNIQFQLHPRTRVFYVTNNNGILATVYLDIGLRYRIDIFPAGLMSSFPLLRLPSNELTKVLRHMNPIAQLGFSLLSEKSKNRISLLRIFSDEVSISVCAYKRKEKLTLRLRNSLSSLEVHKCGPDLVIVLQNWSDCTKLDFRREMSLRHWIDHCMELATAKRIDELTLSSIKKKHKFGISLLSERLKNLICSLQVFTTDVEIILRRSIELKIVPLFLVIGQTGQIEISSFTHFFLDNFIWIRPQMSTRNWIDHCLELTNNHRLNKLIVEAGDNQEIDMDGFYRSLIGLHIKTLELKGTYSRSIQLFGSLSNVDTIVLDVELVQTTDYQRMVVLNHTKLVETRTNRVKFSLNDLLASNASFLQFTNLRIPDTQLNLFLKHWIAGSNQRQEGFSLTKEHDEQSYNQSVILKGIETRPAVRRSEHHKFDEIFTLPQYSRTLDITNCDGVEATVYFGKSWLFNLGPVTNLCCMLVWG,not soluble
9,MLPFVFNADDDGKRVQNEEGNYDPTDHQRQMEDYYKQYEEQRVANSFHNTTGRPDLVAMQARLAETEQAIHRLNEEKKQPPPGFPIMTTPATQPEISIPRSGENKSSRSPSWAREARRSRSRSRDRRGGRSRSRSPSRRRTSRDRRDDRSSRRRRGPIINQLS,soluble
10,MAHHHHHHMPRGGHKGGLFPVSGIKWGMNERIKKRGLYHNRREDILTPRWGYRYENENKKYLPDGSSKSFDIDSSRAWPVDKAQWKYYYNINESRYLWPSICANNPEIKNYILNIIENTDTYFSGIGLEQVSNERKNKNLKKDYTNNSYYKNNYLYNLVHELNNTIYPQIEINLNNNLKRGRIQKLYDIIKEENIWKTTQKIKTPESENVFPYVDDNATLIRELPLSEILYTKSNLRLKVRRHPKWMNVQFLKKKVKIPYLYR,not soluble
11,NKSDAAAKQIKKLEEDFDGRIGVFAIDTGSGNTFGYRSDERFPLCSSFKGFLAAAVLERVQQKKLDINQKVKYESRDLEYHSPITTKYKGSGMTLGDMASAALQYSDNGATNIIMERFLGGPEGMTKFMRSIGDNEFRLDRWELELNTAIPGDKRDTSTPKAVANSLNKLALGNVLNAKVKAIYQNWLKGNTTGDARIRASVPADWVVGDKTGSCGAYGTANDYAVIWPKNRAPLIVSIYTTRKSKDDKHSDKTIAEASRIAIQAID,soluble
12,MSGAPPPPPPYNQAYNAYPQPPQGVYTVQPGVPIGQGVQPAYAVYYQQPQTVIVDDCHHHHHHREREHGGGGGEMCCLAGLMACLCFLCLSK,not soluble
13,MGHHHHHHSHMWTPTEEEKYGVVICSFRGSVPQGLVLEIGETVQILEKCEGWYRGVSTKKPNVKGIFPANYIHLKKAIVSNRGQYETVVPLEDSIVTEVTATLQEWASLWKQLYVKHKVDLFYKLRHVMNELIDLRRQLLSGHLTQDQVREVKRHITVRLDWGNEHLGLDLVPRKDFEVVDSDQISVSDLYKMHL,not soluble
14,MIATPNILAPLHDILPLTKGEARISFIGSRSFLLEAPGEFDLPAQRWIWALSQSVSNWPDVAEIIPGMTNLLTIFKETPDDPDSVVGRLRDAWNSAQSLDLTGKTIEIPVHYGGEYATDLAAICDFSGLSDREVVRLHHEATYRVFALGSAPGFGYLHGLDPRIYMPRKTVPSIRMEKGCVTIGGMQTGVAMLTGPNGWNSIGYADLQMFDPESSVPALMAPGDIVRFVPARIELLEHHHHHH,not soluble
15,MAHHHHHHMLRDELPPEKGQQSFSLWSRILRSIDGCKLEIVLDDQTEADKIKVVDIYDKVSERFPLYSWKEPVKGRVVVTPTGSSYSHQGVVVELIGVASTFREVESRVVFLRQERQFEPDTLNQSTPFEFTFSAPKEHESYHGIYARVRYFVQATVKQRIKSPSVKEEVWVHRVDTALSESQTDASAHMNYFRETCFGPESIAMNVGVDNVLHIEFRYDKKIFHLAERVLGKVEYKVADMDIAYGEVGLVRKEFLAPGQTDETMESETLQKFEIMDGTPIVEEVVPIRLYLKSVPRLTPSYMDVENLFSVRYFLNLVLVNQEGKRYFKQQEIQLYRRTGQERSATSFNSGLPVTPASGDVDAKGGWSA,not soluble
16,SEFVLKHTAFAHLREVGSFPCTLNPHEAESLALVGAMIDQVLELHPGAQRLHIGCDEVYYLGEGEASRRWLQQEQNSTGKLCLSHMRAVASGVKARRPSVTPLVWDDMLRDLPEDQLAASGVPQLVEPVLWDYTADLDVHGKVLLMQKYRRCGFPQLWAASAFKGATGPSQAVPPVEHHLRNHVQWLQVAGSGPTDSLQGIILTGWQRYDHYSVLCELLPAGVPSLAACLQLLLRGGFDEDVKAKVENLLGISSLEKTDPVREGAGSFPGSNILALVTQVSLHLRSSVDALLEGNRYVTGWFSPYHRQRKLIHPVMVQHIQPAALSLLAQWSTLVQELEAALQLAFYPDAVEEWLEENVHPSLQRLQALLQDLSEVSAPPLPPTSPGRDVAQDP,not soluble
17,MGSDKIHHHHHHMRNTDNGVIGSDQTAVMTRLALDELIDQLLHSNALSLKLTANPLVADRAWHLTENTCIRAFSADDPQAKKRAHHALFILYQSWLADPLSPAAANQFHPLLSGIRNYIESEWLRAESKRFHHQRPMLNAGNIVDELRALCQQHPASHHPLFDFLASEASAAQIDYFFKSDSALNLLFFDLVAMGLVGSLPETRAEIAQNLWDEIGQGSTEITHVNLYKDLLKRRNIALPDNHFAHLYEWQGLAGYNAFMLGGVNRQHYYKSLGVMAMTELLDPPQYEKLVAGCRRIGLSERDVHYYAEHITVDIGHADGWLNNVIVPIGKKHPAAMEEVFFGAALRLQTCNDYYDGLLAALQSLGGSLSSHSVPPSE,not soluble
18,MPCDFPGCGRIFSNRQYLNHHKKYQHIHQKSFSCPEPACGKSFNFKKHLKEHMKLHSDTRDYICEF,soluble
19,MGSDKIHHHHHHMKNNLNNILEDSLNYKIGETLDELKSIKKLDEIFSKRKDQLYREKDEGKKVYGRFCVFVPTEIICAADAIPVGLCGGKESTIPSAEEDLPRNICPLIKSSYGFKKDKACPYFEASDVIVGETTCDGKKKMFEHMAELSEMYVMHLPHFKDERSYELWLKEVYDFKDYVEKFTGNKITEEKLKEAIDEENEERMLSHKLYELRSQIPTPITGKDALKIFQRSFLLDIKDRLAILKEVISELEERVKNGEGYTGKRILVAGCPMVAGNTKIVDIIEEVGGLVVGEETCTGTRKFDNLVNGYTIDDLAERYFKINCASAFKNDSRIERIKELVKEQNADGVVYYTLQYCHTFNVEGALIEKELKNLGIPIIRIETDYSESDKEQIKTRLEAFVEMI,not soluble
20,MKQTVLKNNLQNLLESAENILLLQGPVGDFFLRLADWLTANGKTVHKFNFNAGDDYFYPPTQAHTVVFNDNYDAFPEFLQEYITQHHIQAVVCFGDTRPYHVIAKRIANENQASFWAFEEGYFRPYYITLEKDGVNAFSPLPRRADFFLEQFPKLAQQEYKAPTPVHGGFTPMAKNAIRYYIELFRNPRKYPDYIHHRAPNAGHYLKPWSLSILKRLNYYIEDIQIAKRVEAGKYGKFFIVPLQVFNDSQVRIHCDFPSVRSFLLHVLSSFAEHAPADTNIIIKHHPMDRGFIDYWRDIKRFIKEHPELKGRVIYVHDVPLPVFLRHGLGMVTINSTSGLSGLIHNMPVKVLGRAYYDIPGITDQNTLAEFWNHPTPPDKELFHAYRMYHLNVTQINGNFYSQVFFPNKKTSNSSTPVI,not soluble
21,MGSDKIHHHHHHMTKLPATSDIYISFFMFTTNLQPDNLDYRRIVVAHIKKLQRFGYSGFEFPIAPGLPENYAQDLENYTNLRHYLDSEGLENVKISTNVGATRTFDPSSNYPEQRQEALEYLKSRVDITAALGGEIMMGPIVIPYGVFPTTDFNEPIWSDELQEHLKVRYANAQPILDKLGEYAEIKKVKLAIEPITHWETPGPNKLSQLIEFLKGVKSKQVGVVIDSAHEILDGEGPEIFKTQVEYLAQQGRLHYVQVSPPDRGALHTSWLPWKSFLTPIVKVYDGPIAVEIFNAIPAFTNSLRLTRRKFWIPDEDPPNQYPNAYDIADEAIKVTRKELKKIGSK,not soluble
22,MRDATPFYEATGHEIEVFERAWRHGLPVLLKGPTGCGKTRFVQYMARRLELPLYSVACHDDLGAADLLGRHLIGADGTWWQDGPLTRAVREGGICYLDEVVEARQDTTVAIHPLADDRRELYLERTGETLQAPPSFMLVVSYNPGYQNLLKGLKPSTRQRFVALRFDYPAAQQEARILVGESGCAETLAQRLVQLGQALRRLEQHDLEEVASTRLLIFAARLIGDGMDPREACRVALAEPLSDDPATVAALMDIVDLHVALEHHHHHH,not soluble
